Measured values: patent US5866683A, “Isoelectric point markers for isoelectric focusing with fluorescence detection” (Laboratory of Molecular Biophotonics, priority 1995, dated 1999)
Where no end group is shown, it is not given here.

Assay: isoelectric focusing in polyacrylamide slab gel, mobility compared with commercial pI markers
Type: physicochemical
Details: fluorescence-labeled (5-carboxytetramethylrhodamine) oligopeptide, carrier ampholyte pH 3.5-10, vs pI calibration kit 3-10 (range pI 9.30-3.5)
Excerpt: In the present invention, pI of each marker for isoelectric focusing with fluorescence detection can be determined by performing isoelectric focusing to compare a mobility thereof with those of commercially available markers for isoelectric focusing or to directly measure pH at a position of migration of the labeled peptide. The isoelectric focusing preferably applicable is isoelectric focusing in polyacrylamide slab gel (see […]., Isoelectric Focusing: Theory, Methodology and Applications, Elsevier, Amsterdam, 1983). […] The focusing conditions were as follows: started at […] and focusing the voltage was increased at intervals of 15 minutes to 100 V, 200 V, 400 V, and 600 V. After focusing, fluorescence-labeled oligopeptides in the gel were photographed through an orange filter under illumination with ultraviolet light, thereby checking focusing positions thereof. […] After staining, de-stained with a mixed solvent of methanol and acetic acid to obtain a clear background, thereby checking the focusing positions. FIG. 5,6,and 7 show the focusing positions of the 24 fluorescence-labeled oligopeptides obtained and the isoelectric focusing markers commercially available.
For “Glu--His--Lys--Arg (EHKR; printed: Glu--His--Lys--Arg) [No 9, oligopeptide labeled with 5-carboxytetramethylrhodamine]”, the “pI Observed” value was 7.65.
For “EHHHKR [No 17, oligopeptide labeled with 5-carboxytetramethylrhodamine]”, the “pI Observed” value was 7.90.
For “Tyr--Tyr--His--Lys--Arg (YYHKR; printed: Tyr--Tyr--His--Lys--Arg) [No 8, oligopeptide labeled with 5-carboxytetramethylrhodamine]”, the “pI Observed” value was > 9.30.
For “DDEHHHKR [No 20, oligopeptide labeled with 5-carboxytetramethylrhodamine]”, the “pI Observed” value was 4.70.
In the case of “DEYHKR [No 12, oligopeptide labeled with 5-carboxytetramethylrhodamine]”, the “pI Observed” value is reported as 5.55.

Assay: not given
Details: unlabeled protein; cited from earlier work
In the case of “bovine carbonic anhydrase [reference compound]”, the “pI (known) of conventional protein pI marker” value (“pI (known)” for short) is listed as 6.00.
For “human carbonic anhydrase [reference compound]”, the “pI (known)” value is listed as 6.50.
For β-lactoglobulin B [reference compound], the “pI (known)” value is given as 5.10.
In the case of phycocyanin [reference compound], the “pI (known)” value is listed as 4.65.
In the case of human hemoglobin A [reference compound], the “pI (known)” value is given as 7.10.
